Experimental data as given in patent US20210087289A1.

What was measured:
[1] = molecular target: human CD44v9 (CD44 variant containing exon v9), as expressed on PC9 cells and in human tissues (human) (UniProt P16070); test: FACS titration on PC9 cells (30000 pM to 0.1 pM, 3 fold serial dilution), Alexa488 anti-mouse IgG, MFI
[2] = molecular target: human CD44v9 (CD44 variant containing exon v9), as expressed on PC9 cells and in human tissues (human) (UniProt P16070); test: cell-based or functional assay
[3] = molecular target: human CD44v6 (CD44 variant containing exon v6), as expressed on PC9 cells and in human tissues (human), P16070; test: cell-based or functional assay

Chain of UniProt P16070 (P16070 21-742, change not shown): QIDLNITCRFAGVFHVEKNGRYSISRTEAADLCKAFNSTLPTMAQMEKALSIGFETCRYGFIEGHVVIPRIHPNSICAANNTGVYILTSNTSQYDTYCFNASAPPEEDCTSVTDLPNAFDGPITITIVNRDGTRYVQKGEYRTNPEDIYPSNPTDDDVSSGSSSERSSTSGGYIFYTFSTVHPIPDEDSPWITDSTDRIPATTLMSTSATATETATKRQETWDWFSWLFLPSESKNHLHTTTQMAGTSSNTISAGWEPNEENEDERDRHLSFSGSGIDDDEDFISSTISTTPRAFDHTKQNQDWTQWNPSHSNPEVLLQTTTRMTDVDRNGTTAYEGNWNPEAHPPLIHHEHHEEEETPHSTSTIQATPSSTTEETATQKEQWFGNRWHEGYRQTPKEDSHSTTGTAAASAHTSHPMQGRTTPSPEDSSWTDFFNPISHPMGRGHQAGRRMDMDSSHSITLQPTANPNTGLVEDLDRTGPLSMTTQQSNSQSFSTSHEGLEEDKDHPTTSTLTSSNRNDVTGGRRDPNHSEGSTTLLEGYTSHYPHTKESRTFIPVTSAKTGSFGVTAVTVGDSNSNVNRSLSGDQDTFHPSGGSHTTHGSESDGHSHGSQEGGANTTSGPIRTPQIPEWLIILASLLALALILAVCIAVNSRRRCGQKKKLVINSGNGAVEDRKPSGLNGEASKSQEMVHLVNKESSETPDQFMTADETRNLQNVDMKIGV

Kd [1] | Binder | IC50 of PC9 growth inhibition (indirect cytotoxicity, mAb116 with 2 µg/mL MMAE-conjugated goat anti mouse IgG, 72 hrs, CCK8) [2] | IC50 of cytotoxicity (growth inhibition) in PC9 cells [3] | IC50 of cytotoxicity (growth inhibition) in TE1 cells [3]
0.98 nM | anti-CD44v9 monoclonal antibody mAb116 (antibody, V domains shown) VH: QVQLQQSGAELVKPGASVKLSCTASGFNIKDTYMHWVKQRPEQGLEWIGRIDPANGNTKYDPKFQGKATITADTSSNTAYLQLSSLTSEDTAVYYCASRGEGTGFAYWGLGTLVTVSA VL: DIVMTQSAPSVPVTPGESVSISCRSSKSLLHSNGNTYLYWFLQRPGQSPQLLIHRMSNLASGVPDRFSGSGSGTAFTLRISRVEAEDVGVYYCMQHLEYPFTFGGGTKLEIK | 0.03 nM |  | 
 | mAb119-ADC (AMT119), mAb119 conjugated with MC-vc-PAB-MMAE (protein, here or on the partner: MC-vc-PAB-MMAE conjugated to the antibody (average DAR about 6); attachment residues and chain not stated) VH: EVQLQESGPELKKPGETVKISCKASGYIFTNYGMNWVKQAPGKGLKWMGWINTYTGEPTYADDFKGRFAFSLETSASTAYLQINNLKNEDTATYFCARTDYYGSSYWYFDVWGAGTTVTVSS VL: DIQMTQTTSSLSASLGDRVTITCSASQGISNYLNWYQQKPDGTVKLLIFYTSTLPSGVPSRFSGSGSGTDYSLTIRNLEPEDFATYCCQQYSKFPYTFGGGTKLEIK |  | 2.6 nM | 39 nM
